Test system: P-selectin antibody
Test: SPR antibody binding to oriented versus randomly immobilized P-selectin
Conditions: 20 μg/mL P-selectin antibody, 20 μL/min; compared to randomly immobilized P-selectin, comparable amounts immobilized
Procedure: Enhanced controllability of surfaces by covalent immobilization: Previously, we have shown the surfaces with covalently immobilized P-selectin present enhanced functional stability by approximately 10 times, as compared to those with physisorbed P-selectin. The surface stability was assessed using cell-mimicking microspheres as well as live neutrophils. We also developed immobilization chemistries (as shown FIG. 5) on gold coated, […] PEGylated surfaces to employ the flow-based SPR technique that quantitatively analyze the surface functions, offering: 1) easy surface functionalization using thiol chemistries due to the presence of a gold layer and 2) quantitative and real time monitoring of binding events without any modification of analytes. Thus, the SPR technique is useful particularly for determining controllability of density and orientation of P-selectin. The chemistries described in FIG. 5 were developed to achieve non-fouling surfaces and to provide reactive sites for subsequent P-selectin immobilization using oligo(ethylene glycol)-alkanethiols (Prochimia, Poland) on gold coated SPR chips. Briefly, the gold chip surface was cleaned before the subsequent formation of mixed self assembled monolayers (SAMs) by washing with absolute ethanol and drying by nitrogen blowing. […]

antibody binding response: significantly greater binding response
B1: oriented P-selectin: P-selectin biotinylated at its single cysteine, immobilized through biotin-streptavidin binding on OEG-biotin SAM (protein, UniProt P16109 42-830, looked up)
P-selectin: WTYHYSTKAYSWNISRKYCQNRYTDLVAIQNKNEIDYLNKVLPYYSSYYWIGIRKNNKTWTWVGTKKALTNEAENWADNEPNNKRNNEDCVEIYIKSPSAPGKWNDEHCLKKKHALCYTASCQDMSCSKQGECLETIGNYTCSCYPGFYGPECEYVRECGELELPQHVLMNCSHPLGNFSFNSQCSFHCTDGYQVNGPSKLECLASGIWTNKPPQCLAAQCPPLKIPERGNMTCLHSAKAFQHQSSCSFSCEEGFALVGPEVVQCTASGVWTAPAPVCKAVQCQHLEAPSEGTMDCVHPLTAFAYGSSCKFECQPGYRVRGLDMLRCIDSGHWSAPLPTCEAISCEPLESPVHGSMDCSPSLRAFQYDTNCSFRCAEGFMLRGADIVRCDNLGQWTAPAPVCQALQCQDLPVPNEARVNCSHPFGAFRYQSVCSFTCNEGLLLVGASVLQCLATGNWNSVPPECQAIPCTPLLSPQNGTMTCVQPLGSSSYKSTCQFICDEGYSLSGPERLDCTRSGRWTDSPPMCEAIKCPELFAPEQGSLDCSDTRGEFNVGSTCHFSCDNGFKLEGPNNVECTTSGRWSATPPTCKGIASLPTPGVQCPALTTPGQGTMYCRHHPGTFGFNTTCYFGCNAGFTLIGDSTLSCRPSGQWTAVTPACRAVKCSELHVNKPIAMNCSNLWGNFSYGSICSFHCLEGQLLNGSAQTACQENGHWSTTVPTCQAGPLTIQEALTYFGGAVASTIGLIMGGTLLALLRKRFRQKDDGKCPLNPHSHLGTYGVFTNAAFDPSP
modifications: biotinylated at cysteine
